Laboratory results reported in US7772181B2, “Personal care compositions comprising modified variant Bowman Birk Protease Inhibitors” (Danisco US Inc., priority 2008, dated 2010).
Where a chain is given by its changes, count along the chain named. Names may count otherwise.

B1: BBIt-AV-A13I-L29P-S31R-A40K-F50T-V52A: modified variant BBPI, SEQ ID NO:622 (protein)
chain: DPDDESSKPCCDQCICTKSNPPQCRCSDMRPNRCHSACKSCKCYNLYGWTCTCADITDFCYEPCKPSE
modifications: synthetic BBPI variant
B2: BBIt-AV-A13I-L29P-A40K-F50K-V52A: modified variant BBPI, SEQ ID NO:624 (protein)
chain: B1 chain with R33S, T52K
modifications: synthetic BBPI variant
B3: BBIt-AV-A13L-L29P-A40K-F50T-V52A: modified variant BBPI, SEQ ID NO:615 (protein)
chain: B1 chain with I15L, R33S
modifications: synthetic BBPI variant
B4: BBIt-AV-4D13 insert -A13I-L29P-A40K-F50T-V52A: modified variant BBPI, SEQ ID NO:413 (protein)
chain: DPDDEPSKPCCDPDPDDESSKPCCDQCICTKSNPPQCRCSDMRPNSCHSACKSCKCYNLYGWTCTCADITDFCYEPCKPSE
modifications: synthetic BBPI sequence
B5: BBItc-AV: BBtc with CK37281 replacing the second protease inhibitory loop, SEQ ID NO:454 (protein)
chain: DPSSKWEACCDRCACTKSIPPQCHCADIRLNSCHSACESCACYNLYGWTCRCFDITDFCYKPCSG
modifications: synthetic BBtc-AV sequence
B6: BBIdb-AV: BBdb with CK37281 replacing the second protease inhibitory loop, SEQ ID NO:452 (protein)
chain: DPSESSKPCCDQCACTKSIPPQCRCTDVRLNSCHSACSSCACYNLYGWTCVCVDMKDFCYEPCK
modifications: synthetic BBdb-AV sequence
B7: BBIsb3-AV: BBsb3 with CK37281 replacing the second protease inhibitory loop, SEQ ID NO:453 (protein)
chain: DPDDEYSKPCCDLCMCTRSMPPQCSCEDIRLNSCHSDCKSCACYNLYGWTCRCLDTNDFCYKPCKSRDD
modifications: synthetic BBsb3-AV sequence

Biological target: T1, bovine pancreatic trypsin (Bos taurus, UniProt P00760)
T1 construct: purchased Worthington (Worthington Biochemical Corp.)
T1 sequence (P00760 24-246): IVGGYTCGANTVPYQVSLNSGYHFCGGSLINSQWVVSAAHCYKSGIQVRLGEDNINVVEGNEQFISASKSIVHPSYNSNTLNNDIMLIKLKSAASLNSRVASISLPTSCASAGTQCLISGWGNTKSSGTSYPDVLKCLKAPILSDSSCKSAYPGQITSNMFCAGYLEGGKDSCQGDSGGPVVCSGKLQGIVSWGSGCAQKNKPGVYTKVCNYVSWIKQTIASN
Experiment: Shake flask screen: trypsin inhibition after growth, 2-mercaptoethanol activation and acid/heat treatment
Type: biochemical
Details: for trypsin inhibitory activity after activation: alternative scaffolds compared with BBIt-AV
Experimental: To increase expression, the gene copy of the selected clones was amplified by sequentially streaking colonies on Luria agar plates with 25 μg/ml chloramphenicol until the growth rate was similar to growth on Luria agar plates without chloramphenicol. Cultures of the selected variants and controls were grown in 3 ml Luria broth with 25 μg/ml chloramphenicol in 15 ml tubes for ˜10 h. These cultures (30 μl) were then used to inoculate 30 ml of MBD medium in 250 ml baffled shake flasks and grown at 37° C. and 225 rpm for ˜60 h.
For selection of the variants with the best yields, the culture broths were processed as follows. The broth was first activated by mixing 20 ml of broth with 20 ml of 0.25 M glycine buffer (pH 9.3) and the pH was adjusted to 9.0 with 50% NaOH. Then, 2-mercaptoethanol was added to the diluted cultures to a final concentration of 2 mM and the cultures were incubated overnight at room temperature with gentle shaking. The BBIt-AV moiety was then cleaved from the fusion protein by acid/heat treatment, which was accomplished by first adjusting the pH of the activated broth to pH 1.9-2.0 with sulfuric acid, and followed by incubation at 60° C. for 16 hours, with shaking. The BBIt-AV-BCE fusion protein and the BCE catalytic domain are not soluble at pH 2, whereas the free BBI species is soluble. After the cleavage reaction, the insoluble material was removed by centrifugation (5 min. at 3,000 rpm) and the supernatant was analyzed for trypsin inhibitory activity as described above. The BBI activity was also determined for the starting material and for the samples taken after activation. The BCE activity of the starting material was also determined as described above. The BBIt-AV:BCE activity ratios were then calculated for each step in process. The modified BBIt-AVs produced at the highest yields following the acid/heat treatment were selected for further study.

Molecule | yield after acid/heat treatment relative to BBIt-AV-A13I-L29P-A40K-F50T-V52A (SEQ ID NO:601) | inhibitory activities after acid/heat treatment relative to BBIt-AV (alternative scaffolds) | trypsin inhibitory activity after activation | activation with reducing agent (alternative scaffolds)
B1 | significantly better yields | – | – | –
B2 | slightly better yields | – | – | –
B3 | slightly better yields | – | – | –
B4 | slightly better yields | – | – | –
B5 | – | higher inhibitory activities after acid/heat treatment | highest trypsin inhibitory activity after activation | –
B6 | – | higher inhibitory activities after acid/heat treatment | greater than that of the BBIt-AV inhibitor but less than that of the BBItc-AV inhibitor | –
B7 | – | – | very low trypsin inhibitory activity | did not activate with reducing agent
